Test results reported in the supplement of paper PMC10126150.
± gives the standard deviation of the averaged measurements.

Tested on: ATP
Test: switch fluorescence ratio, 500 uM ATP over buffer (Cy3 cluster intensity, sum of 5 cycles each) (fold (ratio)); higher = stronger signal-on switching upon ATP binding; sequences stand for … in TCGTCGGCAGCGTCAGATGTGTATAAGAGACAGTTTTTTTTTTTTTTTTTTTTTTTTT…TC
Details: aptamer strand: ATP DNA aptamer (quencher-CACCTGGGGGAGTATTGCGGAGGAAGG + anchor), 100 nM annealed; ATP concentration: 500 uM
How it was run: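 The quencher-labelled ATP aptamer, at 100 nM, was annealed to Cy3-labelled switching-strand clusters on a modified Illumina MiSeq flow-cell. The clusters were imaged in selection buffer, then after 15 min with 500 uM ATP at 22 °C, and this buffer/ATP cycle ran five times with NaOH stripping and re-annealing between runs. Per-cluster fluorescence ratios, summed target-cycle over summed buffer-cycle Cy3 intensity, were averaged per switch-domain sequence. Clusters outside 100-1000 RFU were excluded.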
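Note: ATP exposure 15 min at 22 °C before imaging.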

Sequence	switch fluorescence ratio
ATGGATTGCA	0.994 ± 0.023
ATGGATTGTG	0.983 ± 0.011
ATGGATTTAA	1.012 ± 0.0041
ATGGATTTAC	1.06 ± 0.028
ATGGCAAAGA	0.9828 ± 0.0096
ATGGCAGGAT	1 ± 0.063
ATGGCAGGTA	0.992 ± 0.033
ATGGCATAAG	1.003 ± 0.0044
ATGGCGGACG	0.981 ± 0.05
ATGGCGGGTT	1 ± 0.016
ATGGCTGGCG	1.07 ± 0.094
ATGGCTGGGT	0.971 ± 0.029
ATGGCTTCGT	1.03 ± 0.021
ATGGGACGGT	1.03 ± 0.036
ATGGGAGAAA	1.01 ± 0.0045
ATGGGAGGGG	1.01 ± 0.035
ATGGGAGTTT	1.01 ± 0.01
ATGGGATACT	1.03 ± 0.033
ATGGGCATC	0.9882 ± 0.0058
ATGGGCGAGC	0.981 ± 0.046
ATGGGCGGCC	1.0476 ± 0.00053
ATGGGGACTA	1.0122 ± 0.00084
ATGGGGAGTC	0.985 ± 0.035
ATGGGGATGA	0.9776 ± 0.004
ATGGGGCAGC	1 ± 0.025

Sequence	switch fluorescence ratio
ATGGGGCATC	0.9907 ± 0.0082
ATGGGGCTCT	0.9967 ± 0.0067
ATGGGGCTGT	0.979 ± 0.034
ATGGGGGAGG	1.009 ± 0.0031
ATGGGGGATC	1.008 ± 0.0082
ATGGGGGCTG	1.02 ± 0.047
ATGGGGGGAA	0.996 ± 0.037
ATGGGGGTAC	0.998 ± 0.014
ATGGGGGTCG	0.98 ± 0.05
ATGGGGTACG	0.972 ± 0.06
ATGGGGTCGA	1 ± 0.051
ATGGGGTTAA	1.03 ± 0.022
ATGGGTAAGG	0.983 ± 0.019
ATGGGTATCT	0.994 ± 0.033
ATGGGTGAAA	0.9867 ± 0.0084
ATGGGTGGCT	1.011 ± 0.007
ATGGGTTAGA	1.05 ± 0.037
ATGGGTTTAA	0.961 ± 0.063
ATGGGTTTTT	0.979 ± 0.029
ATGGTAAGAC	1.14 ± 0.062
ATGGTAAGGG	0.991 ± 0.026
ATGGTAGAAA	1.02 ± 0.012
ATGGTATAAC	1.01 ± 0.015
ATGGTATCGG	1.026 ± 0.0074
ATGGTATTTT	1.01 ± 0.013

Sequence	switch fluorescence ratio
ATGGTCATAA	0.993 ± 0.022
ATGGTCCCTG	0.997 ± 0.035
ATGGTCCGAG	0.998 ± 0.018
ATGGTCGGCC	0.9831 ± 0.0052
ATGGTGAGGG	0.962 ± 0.011
ATGGTGCGGC	1.008 ± 0.0018
ATGGTGCTGG	0.983 ± 0.035
ATGGTGGGT	0.978 ± 0.033
ATGGTGTCTA	0.981 ± 0.038
ATGGTTAGTG	0.975 ± 0.011
ATGGTTGGTA	0.995 ± 0.038
ATGGTTGGTC	0.97 ± 0.023
ATGGTTGTGC	0.991 ± 0.026
ATGGTTGTTC	1.07 ± 0.16
ATGTAAATGT	1.041 ± 0.0077
ATGTAACGAG	1.01 ± 0.022
ATGTAACTCG	1.03 ± 0.044
ATGTAACTGT	0.976 ± 0.033
ATGTAACTTA	1.03 ± 0.027
ATGTAAGGCG	1.014 ± 0.0076
ATGTACGAAT	1.004 ± 0.0025
ATGTAGGCGT	0.967 ± 0.021
ATGTAGGGGG	0.988 ± 0.013
ATGTAGGGGT	1.04 ± 0.093
ATGTAGGGTT	1.036 ± 0.0048

Sequence	switch fluorescence ratio
ATGTAGTAGT	1 ± 0.034
ATGTAGTCTT	1 ± 0.0038
ATGTAGTGCA	0.995 ± 0.034
ATGTATAGGC	0.962 ± 0.06
ATGTATATAG	0.978 ± 0.012
ATGTATTAGG	0.997 ± 0.025
ATGTATTTGG	1.01 ± 0.014
ATGTCAAAGC	0.984 ± 0.063
ATGTCAGAGA	1.02 ± 0.037
ATGTCATGCG	1.02 ± 0.045
ATGTCCCAAG	0.99 ± 0.042
ATGTCCGAGG	1.028 ± 0.0019
ATGTCGACAG	1 ± 0.043
ATGTCGTCTC	1.003 ± 0.0091
ATGTCGTGGG	1.01 ± 0.037
ATGTCTGGGC	0.977 ± 0.014
ATGTGAAAGG	1.02 ± 0.018
ATGTGACGCA	1.13 ± 0.012
ATGTGACTCT	1.01 ± 0.043
ATGTGAGAAT	0.998 ± 0.037
ATGTGATCGC	0.986 ± 0.042
ATGTGCATGT	0.986 ± 0.024
ATGTGGACAA	1.02 ± 0.021
ATGTGGAGAT	0.977 ± 0.059
ATGTGGCCAC	1.06 ± 0.053

Sequence	switch fluorescence ratio
ATGTGGGGGA	1.02 ± 0.015
ATGTGGGGTA	0.985 ± 0.026
ATGTGGTGCA	1.02 ± 0.0034
ATGTGGTTAG	0.994 ± 0.03
ATGTGTAAAA	0.99 ± 0.013
ATGTGTCAAG	0.9675 ± 0.0065
ATGTGTCTGT	1.01 ± 0.017
ATGTGTGAAA	1 ± 0.073
ATGTGTGGGA	1.029 ± 0.0019
ATGTGTGGGC	1.01 ± 0.021
ATGTGTGTA	1 ± 0.021
ATGTGTTGCG	1 ± 0.045
ATGTGTTTTT	0.98 ± 0.036
ATGTTAGTTG	0.965 ± 0.041
ATGTTATCGA	1.008 ± 0.0074
ATGTTCGGGC	1.04 ± 0.035
ATGTTCTATA	0.97751 ± 0.00084
ATGTTCTGGG	1.04 ± 0.029
ATGTTGACCG	1.03 ± 0.044
ATGTTGATAC	1.07 ± 0.0013
ATGTTGATCC	1.03 ± 0.03
ATGTTGGAAT	1.04 ± 0.028
ATGTTGGCGT	1 ± 0.011
ATGTTGGTAG	0.985 ± 0.026
ATGTTGTCAG	0.987 ± 0.027

Sequence	switch fluorescence ratio
ATGTTGTCTC	1.001 ± 0.0079
ATGTTTAAG	1.012 ± 0.0094
ATGTTTCAGG	0.997 ± 0.018
ATGTTTCTGG	0.965 ± 0.011
ATGTTTGAGT	1.01 ± 0.026
ATGTTTGGAC	1.01 ± 0.02
ATGTTTGGTA	1.003 ± 0.0015
ATGTTTTAAC	1.02 ± 0.039
ATGTTTTATG	0.992 ± 0.042
ATGTTTTTCT	0.963 ± 0.0029
ATTAAAAAAG	0.985 ± 0.028
ATTAAAAAAT	0.98 ± 0.089
ATTAAAACGG	1.07 ± 0.098
ATTAAAAGTT	0.984 ± 0.038
ATTAAAGGGG	1 ± 0.023
ATTAAAGGTC	1 ± 0.02
ATTAAAGTTT	1.04 ± 0.034
ATTAACTGAA	1.04 ± 0.012
ATTAACTGGG	1.01 ± 0.023
ATTAAGAGGC	1.02 ± 0.06
ATTAAGCAAG	1.04 ± 0.015
ATTAAGCAT	1.04 ± 0.053
ATTAAGGGGT	1.07 ± 0.12
ATTAAGTCGT	0.982 ± 0.033
ATTAATATCA	0.9629 ± 0.0017

Sequence	switch fluorescence ratio
ATTAATATGG	1.02 ± 0.015
ATTAATGTGT	0.9987 ± 0.0011
ATTACGACTG	1.06 ± 0.031
ATTACGGGGT	1.01 ± 0.044
ATTACGTATT	1.103 ± 0.0095
ATTACGTGTA	1.012 ± 0.0039
ATTACGTTGG	0.998 ± 0.024
ATTACGTTTT	0.989 ± 0.039
ATTACTAGTG	1.03 ± 0.014
ATTACTTACA	1.308 ± 0.0037
ATTAGAAAAA	0.904 ± 0.019
ATTAGAACGG	1.01 ± 0.022
ATTAGACCCT	1.038 ± 0.005
ATTAGAGATT	1.01 ± 0.028
ATTAGAGCGT	1.013 ± 0.0045
ATTAGCGCCC	1.01 ± 0.032
ATTAGCTGGT	0.952 ± 0.017
ATTAGCTTAG	0.987 ± 0.017
ATTAGGGGAT	1.01 ± 0.018
ATTAGGGGTT	1 ± 0.037
ATTAGGGTTG	0.9823 ± 0.0019
ATTAGGTAAT	0.999 ± 0.011
ATTAGGTACG	1.02 ± 0.038
ATTAGGTGGG	1.05 ± 0.068
ATTAGTAGCA	1 ± 0.014

Sequence	switch fluorescence ratio
ATTAGTCCGA	0.9917 ± 0.0089
ATTATACTTC	1.04 ± 0.013
ATTATATTCT	1 ± 0.038
ATTATCTTGG	1.05 ± 0.064
ATTATGAATT	1.01 ± 0.021
ATTATGGAGG	0.968 ± 0.016
ATTATGGCGC	0.967 ± 0.0049
ATTATGGCTG	1.07 ± 0.011
ATTATGGTAT	1.02 ± 0.04
ATTATGGTGG	1.16 ± 0.26
ATTATGTTTG	1.002 ± 0.0097
ATTATTAATG	0.9917 ± 0.008
ATTATTAGAA	0.9912 ± 0.0034
ATTATTATTG	0.981 ± 0.041
ATTATTCAGT	0.997 ± 0.018
ATTATTCTTT	1.01 ± 0.061
ATTATTGGTG	1.018 ± 0.0046
ATTATTTATC	0.985 ± 0.088
ATTCAAGTT	0.999 ± 0.034
ATTCACACGC	1.06 ± 0.017
ATTCACTTAG	1.09 ± 0.011
ATTCAGACCT	1.39 ± 0.019
ATTCAGATCT	1 ± 0.034
ATTCAGGGCT	1.01 ± 0.013
ATTCAGGGGG	1.07 ± 0.028
